These are literature values, as cited in paper PMC8162889.

As usually defined, the Kd is the constant that tells how readily two partners part at equilibrium.

In the data set the target is EphA2 ECD (Homo sapiens) (UniProt P29317). The experiment in a line: MST.
Sequence of UniProt P29317 (P29317 24-537): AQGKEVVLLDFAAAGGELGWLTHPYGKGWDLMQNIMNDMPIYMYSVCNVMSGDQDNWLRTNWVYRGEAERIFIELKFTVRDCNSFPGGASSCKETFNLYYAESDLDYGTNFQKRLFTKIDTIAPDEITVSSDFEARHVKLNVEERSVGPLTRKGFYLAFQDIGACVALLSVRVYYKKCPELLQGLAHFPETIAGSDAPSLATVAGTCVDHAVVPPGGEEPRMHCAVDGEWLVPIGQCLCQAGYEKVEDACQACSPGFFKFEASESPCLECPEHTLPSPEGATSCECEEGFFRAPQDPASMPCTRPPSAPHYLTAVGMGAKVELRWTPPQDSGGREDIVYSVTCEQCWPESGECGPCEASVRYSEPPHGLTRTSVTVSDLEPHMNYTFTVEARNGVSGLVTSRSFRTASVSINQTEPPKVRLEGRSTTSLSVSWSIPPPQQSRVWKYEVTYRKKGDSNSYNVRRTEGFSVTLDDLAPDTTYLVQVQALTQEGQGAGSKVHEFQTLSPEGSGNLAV

For Progranulin (from UniProt P28799), the Kd is 1.2 nM.
